Test results reported in the DeepSol protein solubility set.

Experiment: soluble on expression in E. coli; label from the status in PepcDB or PDB records

| Sequence | soluble on expression in E. coli |
| --- | --- |
| MKCPYCGHPDTRVVDSRPSDEGMAIRRRRECPSCGRRFTTYERTQLEPLMVVKRDGRKEPFNPDKLLRGLLLACEKRPVSEEVLRRFAYTFEDQVSGPEITSEEIGLKALAFLKELDHVAYIRFASVYREFDSVERFIEEIRSLASLN | soluble |
| MGSDKIHHHHHHMATRATQISTLVEEIANNPNLKEDLKILPSNYTFEVPKTIWKIRSTESKYVALQFPEGLIMYACVIADILEKYTGCDTVIMGDVTYGACCVDDYTAKSMGCDLLVHYGHSCLVPIQNTDGIAMLYVFVNIHINLSHLIDCVKENFQGKRLVVVSTVQFIPSLQTLRTTFNKDDSSIRIDIPQCKPLSPGEVLGCTSPRLDASKYDAIVYLGDGRFHLESIMIHNPEIEAFQYDPYSRKLTREFYDHDLMRKNRIGSIEIARKCTTFGLIQGTLGRQGNLKVVEELEAQLERKGKKFLRVLLSEIFPEKLAMFPEVDCWVQVACPRLSIDWGTQFPKPLLYPFELAVALDNISVPSDHWPMDYYSNDSLGPWTNNNEANRPKREKRKPHIVVRTEAS | not soluble |
| MTMTLNELLATNPDGTLEDIAGKYNTSLFAVVEALPTAQCTLATGDRFDQVWDTIATWGEVTLISHTADAILEFKSELPTGTHRHGYFNLRGKNGLSGHIRATSCQHIAFIERKFMGMDTASVVFFNANGAAMFKIFLGRDSHRQLLSAQVDAFRALASELQPEQVLEHHHHHH | soluble |
| MGSDKIHHHHHHMWQAISRLLSEQLGEGEIELRNELPGGEVHAAWHLRYAGHDFFVKCDERELLPGFTAEADQLELLSRSKTVTVPKVWAVGADRDYSFLVMDYLPPRPLDAHSAFILGQQIARLHQWSDQPQFGLDFDNALSTTPQPNTWQRRWSTFFAEQRIGWQLELAAEKGIAFGNIDAIVEHIQQRLASHQPQPSLLHGDLWSGNCALGPDGPYIFDPACYWGDRECDLAMLPLHTEQPPQIYDGYQSVSPLPADFLERQPVYQLYTLLNRARLFGGQHLVIAQQSLDRLLAA | not soluble |
| MGSDKIHHHHHHMLMPDAPSNTESLPTSVDLAGEYQASGVAEILDELDRELVGLKPVKQRIRETAALLLVERARRAMGLSHEPPSLHMSFTGNPGTGKTTVALRMANLLHRLGYIRKGHLVSVTRDDLVGQYIGHTAPKTKEILKKAMGGVLFIDEAYYLYRPDNERDYGQEAIEILLQVMENNRDDLVVILAGYADRMDRFFESNPGFRSRIAHHIDFPDYDNGELLSIAESMLSRQGYRFDSKASAVMSDYIARRRRQPHFANARSIRNALDRARLRQANRLFEESAGPVDAEQLSTITARDIAASRVFATVEPSHTETSP | not soluble |
| MGSDKIHHHHHHAQYVVTGGSGSPMKASQSSGDSAERLEVYLVYGMDNVTISYTSSSSSSHQWYRYKTKRLEAEKVASTQNGTTSTIRNVEEGYGYFVEEGAVSRYVWIVDYSKYTLNISNLHVSDNSDPCSGLVLAGTGTIQPIYYYWPNTGTRRELSRQFDVIYNTLEYNSDKKEYTSKQETAVIEGNLFGKSIPAPWCDTEICVKGDYFARHFGKEVTLCIDEYQAAAVDAHIDTLLIEQEAPNMNTTKSGYCAPATVQFSAIANTPTAALFNWKIYRQGEEDNPVVRFTGEEVDYTFNQSGTFIIKLEVSDQSTTCSTEDEVQIDISESYLMIPNAFSPGTTPGINDEFRVAYKSLVKFKAWIFNRWGLQMYYWTDPAQGWDGKKGGKYVQPGVYFYVIEAEGSDGIKYKEKGDINILRPKTIQDENENIQE | not soluble |
| MLIKIAPSILSADFSKLGEEVLRIEKAGADLVHIDVMDGHFVPNITIGPPVVKSLKKVSKLPFDVHLMIENPDMYIESFADAGADIISVHAEACRHLHRTIQKIKQLGIKAAVALNPATPLCAVEWVMEDVDMILLMTVNPGFGGQKYINGVTRKIEELERIVESRGLNIDIEVDGGIDTETVQYVTKAGANVIVSGSTIFAAEDTAKIIQELRMNSYRK | not soluble |
| MRGSHHHHHHGMASHMATEQTAITRATFDEVILPVYAPADFIPVKGKGSRVWDQQGKEYIDFAGGIAVTALGHCHPALVEALKSQGETLWHTSNVFTNEPALRLGRKLIDATFAERVLFMNSGTEANETAFKLARHYACVRHSPFKTKIIAFHNAFHGRSLFTVSVGGQPKYSDGFGPKPADIIHVPFNDLHAVKAVMDDHTCAVVVEPIQGEGGVQAATPEFLKGLRDLCDEHQALLVFDEVQCGMGRTGDLFAYMHYGVTPDILTSAKALGGGFPVSAMLTTQEIASAFHVGSHGSTYGGNPLACAVAGAAFDIINTPEVLQGIHTKRQQFVQHLQAIDEQFDIFSDIRGMGLLIGAELKPKYKGRARDFLYAGAEAGVMVLNAGADVMRFAPSLVVEEADIHEGMQRFAQAVGKVVA | soluble |
| SNAMSDSDAMTDPNAVSYSNAIVVLCTAPDEASAQNLAAQVLGEKLAACVTLLPGATSLYYWEGKLEQEYEVQLLFKSNTDHQQALLTYIKQHHPYQTPELLVLPVRDGDKDYLSWLNASLL | soluble |
| GSHMASKISDNVRIKLYMEGTVNNHHFMCEAEGEGKPYEGTQMENIKVTKGGPLPFSFDILTPNCQYGSVAITKYTSGIPDYFKQSFPEGFTWERTTIYEDGAYLTTQQETKLDGNCLVYNIKILGCNFPPNGPVMQKKTQGWEPCCEMRYTRDGVLCGQTLMALKCADGNHLTCHLRTTYRSKKAAKALQMPPFHFSDHRPEIVKVSENGTLFEQHESSVARYCQTCPSKLGHN | soluble |
| MDYKDDDDKLVDSLRACVFDAYGTLLDVHSAVMRNADEVGASAEALSMLWRQRQLEYSWTRTLMHQYADFWQLTDEALTFALRTYHLEDRKGLKDRLMSAYKELSAYPDAAETLEKLKSAGYIVAILSNGNDEMLQAALKASKLDRVLDSCLSADDLKIYKPDPRIYQFACDRLGVNPNEVCFVSSNAWDLGGAGKFGFNTVRINRQGNPPEYEFAPLKHQVNSLSELWPLLAKNVTKAA | soluble |
| NVAYPLGEGLLSFAESLESQKIHFTTEVITSRIEPANRYVAEKLRITPGQDILYLERLRSIGDEKAMLIENRINIELCPGIVEIDFNQHNLFPTIESLSKRKIRYSESRYAARLIGNERGHFLDISEDAPVLHLEQLVFFSRELPVEFGNVWLKGNKYYLGTVLQRRELS | soluble |
| MEQQIQMDEQENDESQGNDDQQNMSMSSSELHTMQDDHPGILLKTNTRMSITVKKLHVCGEWKWLQGGEDTCGICRMEFESACNMCKFPGDDCPLVLGICRHAFHRHCIDKWIAAPTNQPRAQCPLCRQDWTIVE | not soluble |
| MSLCELLGMSANVPTDICFSFTGLMQRGGKTGPHRDGWGIAFYEGKGFRTFKDPNPSSQSKIAELVQQYPIKSRAVISHIRQANRGGVNLENTHPFTRELWGQYWTFAHNGQLTGYQNLVTGRHRPVGETDSELAFCWLLNQMEQCYPEGPQDWPEMLRYVAQCCDELRALGVFNMLLSNGEYVMAYCTNHLYWITRRAPFGCAALLDEDVEINFQEETTPNDVVSVIATQPLTGNETWQRMKPGQFAFFHFGERIEDNAHVLMDVGFAPNRPGCQAPSQPLDEGGSHHHHHH | soluble |
| MRGLTPEQTLMLADAFCAQTSGDLSVRDYAALNAIAAVTTAHIHAVVVFPTAHHMVKYVRSLVIQLSPLDDRNTDFADFLVAVLRDLNGL | not soluble |
| MNRVYVGTVSAVTDIGVFVNLNKRLRGLIHRRNLGNNRFSEDEEILVQVSGIGLSGEIDLKPVKMDGYKVVEISKEVGRVEIAELENLEHHHHHH | not soluble |
| MMVVKVKMLYWVDEVGGRAESMEIELKPFGYRTAPITQWEVLIAAEDVEVEKGKPVIVRVEPVFLPGNTLVGPLSIMRHALGTLVDVVECGVPGRVEDEKCISRVLFLPVEDGVIKKGDMVGVLKVFYIKTGLLTRILGLEPPKVELKKGFHEANIVWRDNGNIYREPAKVTILGYMRSHIGVWELLVADETVRVKRGDVLRIRIKEVRLPPNTVVVPLPVMRNAFGTVLDVVQLGKPSRVEEEKTLHQAIFLAVEDGVIEEGDLIGVINVYYVGLGDFKPLVQDKPPQKVRIVYRSGDGIVKREVEVEPFGYRRSPVGKWEALIADESKPVRYGEPVVVKVKRVRVPPKTILYPLHIMRHAYGTVADVFCDCKPWKVEEGGEIKKVVFLPVMDGEIKEGELLGIINLHDVELSPLGRVRQWLDNWLTEMGRTFDEGDWPLWLEHHHHHH | soluble |
| MKVIMTTKVDKASMNIMNKLIENFGFKETEYVFDGNPVYKRGDVLILTTNDEMIYYDYLDREIENQLGFKPEIIAFASRHSSKQKLPALTTHVTGNWGKAMYGGKDESFAVAIPSAMKLSLLKMSELNDLGWTVCYEATHHGPTELEVPSFFIEIGSSEEEWINDRAGEIIAETIIYVLDNYEKGRSKFKVALGIGGGHYAPKQTKRALEGDLAFGHILPKYAQPVSRDVMIKALNRFGEKVEAIYVDWKGSRGETRQLAKSLAQELGLEFIKD | soluble |
| MGSDKIHHHHHHMSGHKCYPWDLQDRYAQDKSVVNKMQQKYWETKQAFIKATGKKEDEHVVASDADLDAKLELFHSIQRTCLDLSKAIVLYQKRICFLSQEENELGKFLRSQGFQDKTRAGKMMQATGKALCFSSQQRLALRNPLCRFHQEVETFRHRAISDTWLTVNRMEQCRTEYRGALLWMKDVSQELDPDLYKQMEKFRKVQTQVRLAKKNFDKLKMDVCQKVDLLGASRCNLLSHMLATYQTTLLHFWEKTSHTMAAIHESFKGYQPYEFTTLKSLQDPMKKLVEKEEKKKINQQESTDAAVQEPSQLISLEEENQRKESSSFKTEDGKSILSALDKGSTHTACSGPIDELLDMKSEEGACLGPVAGTPEPEGADKDDLLLLSEIFNASSLEEGEFSKEWAAVFGDGQVKEPVPTMALGEPDPKAQTGSGFLPSQLLDQNMKDLQASLQEPAKAASDLTAWFSLFADLDPLSNPDAVGKTDKEHELLNA | not soluble |
| MTDETENVPKTEQEVPNDPESEKEVKEDAKEEVKDLIPEFYSQHGGDPRLIDIAASVWLSGIPTDFITDTYEQFCETIKNIMKMGHKLDVSTVSKIVRIPNLDSNAKNSEHALRALICFSDKKHIYRMMTREAEFAKEEMKVELIEELPSDALEISEDDKCLLLNGLVEAEDAGDDVDVGGGDDDEIDELMDHDDEGGHDEHEEDEESDVKKEEEKGSEKKEKKPEPPKKKVYEDEDEKAPFEMYWDGAPEFQWRLCEGPRDEKKLIIDNLLWADLNNVFIYRTIQKSTTCEINFPTRFNSDGNRTCHGKLTLFFPGNVAIMDEALKHLVYFRSGDGRRIKVFLPQTTVSLKRKEEFEGKLGRVIKPTERMMQLIVKILPDGYTPTLDEACAWFPLQAVIQCDLVNDEMGNPCAVVKFETAEEAVAAHAGKSFVTIVQKSMITVKDSEGNEKEEEKETETHCNVFMRGGIIMGF | not soluble |
| MAHHHHHHMVIFFGRAQTRRVTGKVVVFGATTNVGKHLSLLLTLSPQVKELCCFDPLNDVTLRMTETRVRGIVKDLSHIDTGVVLRAVDDPQQWEPAMRNAQLVLICTGSIPNPSRLQRDLALAECAPEYLVAMELVARAAPHAIVGIASGPVNSLVPLAREVLLRHSAFDPRKLFGITSRDVMRTRVLFAKELHMNPYDVNVHVVGGKGDATVCPLITQTGFQLPHQRMVQLCEEVQRPENFTAGDHNSTGCRVDSQNVQGQEKFTCPTLSTANAAYEWVTSIMKAQRGDRGITECSFVESSIKRETPFFSSRVELGEEGAAQLLPLGALTPYEEELVAAAVPLIVEDVEAGLRLSKTGVDAVS | not soluble |
| MAHHHHHHMDKLISNNKLKLSVVLLGGLCSLAYYHLKNKFHLSQFCFSKKWFSEFSIMWPGQAFSLKIKKILYETKSKYQNVLVFESTTYGKVLVLDGVIQLTEKDEFAYHEMMTHVPMTVSKEPKNVLVVGGGDGGIIRELCKYKSVENIDICEIDETVIEVSKIYFKNISCGYEDKRVNVFIEDASKFLENVTNTYDVIIVDSSDPIGPAETLFNQNFYEKIYNALKPNGYCVAQCESLWIHVGTIKNMIGYAKKLFKKVEYANISIPTYPCGCIGILCCSKTDTGLTKPNKKLESKEFADLKYYNYENHSAAFKLPAFLLKEIENI | soluble |
